Reference: patent US20240368668A1, “SUBSTRATES AND BIOMARKERS OF ADAMTS7” (The Broad Institute, Inc., priority 2021, published 2024)
Square brackets hold non-standard residues; d marks the D form. Ends that are not written are not given here.

Molecular target: T1, mouse ADAMTS7 (Mus musculus, UniProt Q68SA9, E373Q)
T1 construct: Full-length mouse Adamts7 1-1857 (Uniprot Q68SA9, WT or E373Q catalytic mutant); expressed in transfected cells; host or cells: Human Coronary Artery Smooth Muscle Cells (HCA-SMC, Lonza), adenovirus 50 MOI
T1 sequence (Q68SA9 221-1657 E373Q): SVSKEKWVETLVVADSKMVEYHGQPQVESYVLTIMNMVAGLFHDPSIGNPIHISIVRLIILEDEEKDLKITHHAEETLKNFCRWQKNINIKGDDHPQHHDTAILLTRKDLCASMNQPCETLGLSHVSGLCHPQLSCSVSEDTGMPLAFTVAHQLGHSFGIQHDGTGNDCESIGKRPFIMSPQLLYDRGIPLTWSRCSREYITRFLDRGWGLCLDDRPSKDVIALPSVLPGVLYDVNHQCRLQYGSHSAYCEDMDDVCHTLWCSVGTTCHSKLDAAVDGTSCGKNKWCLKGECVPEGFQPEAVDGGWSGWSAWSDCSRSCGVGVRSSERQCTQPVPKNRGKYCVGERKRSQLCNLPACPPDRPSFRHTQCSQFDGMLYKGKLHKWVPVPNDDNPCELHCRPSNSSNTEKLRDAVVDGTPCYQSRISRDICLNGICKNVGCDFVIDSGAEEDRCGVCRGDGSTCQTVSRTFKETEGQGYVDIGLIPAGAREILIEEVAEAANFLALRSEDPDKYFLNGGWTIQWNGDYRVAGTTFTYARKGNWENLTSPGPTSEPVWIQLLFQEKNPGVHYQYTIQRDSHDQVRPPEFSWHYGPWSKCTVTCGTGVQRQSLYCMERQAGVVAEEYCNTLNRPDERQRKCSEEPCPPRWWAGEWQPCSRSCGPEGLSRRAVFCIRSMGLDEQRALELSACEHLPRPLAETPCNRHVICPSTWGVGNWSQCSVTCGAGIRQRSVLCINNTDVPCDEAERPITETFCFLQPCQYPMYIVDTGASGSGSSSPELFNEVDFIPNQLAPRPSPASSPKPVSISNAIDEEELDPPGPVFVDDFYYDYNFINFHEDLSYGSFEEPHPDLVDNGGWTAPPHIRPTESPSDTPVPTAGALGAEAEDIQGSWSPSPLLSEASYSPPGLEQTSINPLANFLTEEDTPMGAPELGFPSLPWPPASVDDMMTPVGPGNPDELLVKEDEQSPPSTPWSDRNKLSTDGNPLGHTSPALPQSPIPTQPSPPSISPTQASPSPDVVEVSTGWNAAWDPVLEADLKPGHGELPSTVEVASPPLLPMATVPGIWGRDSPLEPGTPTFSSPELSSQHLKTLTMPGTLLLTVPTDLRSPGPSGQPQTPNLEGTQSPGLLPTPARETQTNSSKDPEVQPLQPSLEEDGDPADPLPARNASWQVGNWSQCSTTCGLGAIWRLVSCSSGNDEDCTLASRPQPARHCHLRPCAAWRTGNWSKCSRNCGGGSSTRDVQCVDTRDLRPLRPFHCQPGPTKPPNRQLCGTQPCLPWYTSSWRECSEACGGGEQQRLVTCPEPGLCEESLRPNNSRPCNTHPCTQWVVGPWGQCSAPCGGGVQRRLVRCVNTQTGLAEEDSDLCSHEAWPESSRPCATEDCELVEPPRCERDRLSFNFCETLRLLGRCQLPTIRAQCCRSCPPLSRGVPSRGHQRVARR
Test: TMT10 TAILS N-terminomics, SMC1 experiment (Ad-mADAMTS7 WT vs EQ vs Luc, technical replicates, trypsin digest)
Format: cell-based
Settings: TAILS neo-N-terminal peptide abundance; log fold change, Ad-mADAMTS7 EQ over Luc
Source text: ADAMTS7 Expression, Cell Culture and Preparation of the Secreted Proteins—Full-length mouse Adamts7 1-1857 (Uniprot Q68SA9, WT or E373Q catalytic mutant) with a carboxyl terminal 3xFLAG tag was used to generate custom adenoviruses as previously described. Adeno-CMV-Luciferase (Ad-Luc) from Vector Biolabs was used as a negative control. Human Coronary Artery Smooth Muscle Cells (HCA-SMC) were obtained from Lonza and expanded in Lonza SmGM-2 media in 15 cm tissue culture plates. Twenty-four hours before media collection, near confluent plates were transduced with 50 MOI adenovirus and switched to Lonza Basal SM media with volumes of 20 ml per 15 cm plate. Expression of the Flag tagged ADAMTS7 was confirmed from the media using western blot and detected using the anti-Flag M2-HRP antibody (Sigma, A8592). Collected media was processed by adding protease inhibitors (1 mM EDTA and 1 mM PMSF) and clarified by 500 g×5 min spin at 4 C to pellet cell debris. Cell media supernatants were then passed through a 0.22 um filter and kept chilled. Processed media was then concentrated 50-100× using 3 kDa Centricon Plus-70 filter unit, spun at 3,500 g×60 min at 4 C. Approximately 10% of the processed, concentrated media was set aside for total secretome proteolytic analysis. The remaining 90% of the processed, concentrated media was buffer exchanged into 50 mM HEPES pH 8.0, 150 mM NaCl (2×50 ml) using the 3 kDa Centricon Plus-70 filter unit and concentrated to >2 mg/ml to serve as input for the TAILS experiment. Secretome and TAILS input samples were stored at −80° C.
For the first experiment, referred to as SMC1, 120 ml of media from 6×15 cm dishes was pooled from each condition (Luc, WT, EQ) and processed to produce three separate inputs for the TAILS experiment. Luc, WT and EQ inputs from the SMC1 experiment were each divided into triplicate 400 ug samples to generate technical replicate TAILS data. For the second experiment, referred to as SMC2, media was processed separately in triplicate for each condition (Luc1, Luc2, Luc3, WT1, WT2, WT3, EQ1, EQ2, EQ3) using 60 ml of media from 3×15 cm dishes for each process replicate. Inputs from the SMC2 experiment used process replicates of 300 ug each to generate TAILS data. The third experiment used input from cultured Human umbilical vein endothelial cells (HUVEC) from Lifeline Cell Technology grown in VascuLife Media and transduced in Lifeline Basal EC (+bFGF2 10 ng/ml). The HUVEC experiment used the same strategy as the SMC2 experiment, with 40 ml of media from 2×15 cm dishes for each process replicate and used 200 ug each to generate TAILS data. Inputs for process replicate experiments were restricted to the lowest concentration from the 9 parallel samples for SMC2 or HUVEC.
TMT10 isotopic labeling and negative selection of non-labeled peptides-Sample preparation was performed based on the TAILS protocol from the Overall lab with some modifications. From a single experiment, nine parallel protein samples in 50 mM HEPES pH 8.0, 150 mM NaCl were separately denatured with guanidinium chloride (Sigma, G4505) to reach a final concentration of 2.5M guanidinium chloride and 250 mM HEPES and incubated at 65° C. for 15 min. Reduction was achieved through addition of tris(2-carboxylethyl) phosphine (TCEP) at a final concentration of […] and incubated at 65° C. for 45 min. Alkylation reaction was performed with addition of iodoacetamide (IAA, Sigma, A3221) to a final concentration of 10 mM IAA for 15 min at room temperature in the dark. Following denaturation, reduction and alkylation steps, ten percent of each of the nine parallel protein samples was removed and combined to serve as a pooled reference. Isobaric tags were added to free amine groups using the TMT10plex Isobaric Mass Tagging Kit (ThermoFisher, 90113) with TMT channels randomly assigned to the nine samples and TMT 131 assigned to the pooled reference. […]

Substance	logFC.mEQ.over.Luc
HSPG2_4133 (DGFKGDLCEHEENPCQLR; listed as Homo sapiens)	−0.14
HTRA1_33 (LAAGCPDR; listed as Homo sapiens)	0.09
IFI30_43 (YKTGNLYLR; listed as Homo sapiens)	0.00
IGFBP3_31 (SAGLGPVVR; listed as Homo sapiens)	−0.04
IGFBP3_32 (AGLGPVVR; listed as Homo sapiens)	0.28
IGFBP3_200 (FSSESKR; listed as Homo sapiens)	−0.09
IGFBP7_101 (AAGGPGVSGVCVCKSR; listed as Homo sapiens)	0.29
LASP1_123 (HEEFEKSR; listed as Homo sapiens)	−0.53
LGALS1_53 (HGDANTIVCNSKDGGAWGTEQR; listed as Homo sapiens)	0.94
LGALS3BP_447 (FQAPSDYR; listed as Homo sapiens)	0.57
LOXL1_219 (VASAGVIYPYQPR; listed as Homo sapiens)	−0.10
LOXL2_37 (FQQPAPEYHQPQAPANVAKIQLR; listed as Homo sapiens)	0.09
LOXL2_38 ([code q]QPAPEYHQPQAPANVAKIQLR; not fully specified; listed as Homo sapiens)	0.11
LOXL2_318 (AYKPEQPLVR; listed as Homo sapiens)	0.00
LOX_58 (LSLGSQYQPQR; listed as Homo sapiens)	−0.11
LOX_80 (ANASAQQPR; listed as Homo sapiens)	−0.16

Substance	logFC.mEQ.over.Luc
LOX_81 (NASAQQPR; listed as Homo sapiens)	−0.30
LOX_123 (HWFQAGYSTSR; listed as Homo sapiens)	−0.22
LOX_124 (WFQAGYSTSR; listed as Homo sapiens)	0.08
LOX_126 (QAGYSTSR; listed as Homo sapiens)	0.02
LTBP1_393 (LTATNFR; listed as Homo sapiens)	0.14
LTBP1_494 (SVQIHQVSR; listed as Homo sapiens)	−0.01
LTBP1_540 (HQQVIPHVYPVAAKTQLGR; listed as Homo sapiens)	0.13
LTBP1_546 (HVYPVAAKTQLGR; listed as Homo sapiens)	−1.05
LTBP2_485 (SVQIHQVAQVR; listed as Homo sapiens)	−0.42
LTBP2_533 (SGEPPRPLPPAAPR; listed as Homo sapiens)	0.28
LTBP2_677 (SLGPGTCTLPLAQR; listed as Homo sapiens)	0.05
LTBP2_760 (SSGALPGPAER; listed as Homo sapiens)	0.29
LTBP2_1023 (GKCTNLEGSFR; listed as Homo sapiens)	0.03
LTBP2_1371 (SGQKGHAPCSSVLGR; listed as Homo sapiens)	0.31
LTBP2_1560 (TTYTECCCQDGEAWSQQCALCPPR; listed as Homo sapiens)	0.23
LTBP2_1584 (SSEVYAQLCNVAR; listed as Homo sapiens)	0.32
